According to publication PMC10035497, “Structures of Cancer Antigen Mesothelin and Its Complexes with Therapeutic Antibodies” (Cancer Research Communications, 2023):

Molecular target: T1, C-terminal shedding-resistant peptide of MSLN (residues 582-598) (human, UniProt Q13421-3)
T1 construct: Mesothelin, human, 17-residue peptide I582 to S598, holds most of the major sheddase cleavage sites; numbers count on: the 622-residue precursor, isoform Q13421-3; also called C-terminal peptide; 17-residue peptide; source: synthetic peptide (GenScript)
T1 chain: IPNGYLVLDLSMQEALS
Assay: crystal structure; synthetic peptide 582-598 mixed with Fab(15B6) at a molar ratio of 3:1 in 20 mmol/L Tris, 100 mmol/L NaCl, pH 7.5, overnight at 4°C; 1.74 Å
Conditions: both partners purified

B1: Fab fragment of mAb 15B6 (Fab, V domains shown)
VH: EVQLQQSGPVLVKPGASVKISCKASGYSFTGYYMHWVRQSNGKSLEWIGRINPYTGVPSYKHNFKDKASLTVDKSSSTAYMELHSLTSEDSAVYYCARELGGYWGQGTTLTVSS
VL: QAVVTQESALTTSPGETVTLTCRSSTGAVTTGNYPNWVQEKPDHLFTGLIAGTNNRAPGVPARFSGSLIGDKAALTITGAQTEDEAIYFCALWFSSHWVFGGGTKLTVL
notes: heavy chain of the Fab in PDB 7U8C (214 residues modelled); mouse IgG2b; light chain of the Fab in PDB 7U8C (213 residues modelled); mouse lambda; mouse isotype IgG2b lambda; raised against the peptide I582-S598; also called Fab(15B6); Fab of Mab 15B6; source: mAb 15B6 obtained from GenScript, digested with immobilised papain, Fc removed on Protein A
binding result: binds
